Starred links: 1 amine or outer side, 2 acyl side, 3 side chain; linkers in the order of their positions; H or OH if unused. Non-standard residues stand in square brackets, D forms with d. Groups on a side chain read outwards from the residue. No end group written: not given here. *: point of attachment. C20 diacid = O=C(O)CCCCCCCCCCCCCCCCCCC(=O)*; C18 diacid = O=C(O)CCCCCCCCCCCCCCCCC(=O)*; γGlu = O=C(O)[C@H](CCC(=O)[*:2])N[*:1]; αMeF = C[C@](N)(Cc1ccccc1)C(=O)O; AEEA = NCCOCCOCC(=O)O; Aib = CC(C)(N)C(=O)O
B1: Peptide 451 (peptide)
peptide: H[Aib]QGTFTSDVSK[αMeF]LDKK([AEEA-AEEA-γGlu-C20 diacid])RARDFVLWLL[Aib]E-NH2
modifications: N-terminus assumed
SMILES: CC(C)C[C@H](NC(=O)[C@H](Cc1c[nH]c2ccccc12)NC(=O)[C@H](CC(C)C)NC(=O)[C@@H](NC(=O)[C@H](Cc1ccccc1)NC(=O)[C@H](CC(=O)O)NC(=O)[C@H](CCCNC(=N)N)NC(=O)[C@H](C)NC(=O)[C@H](CCCNC(=N)N)NC(=O)[C@H](CCCCNC(=O)COCCOCCNC(=O)COCCOCCNC(=O)CC[C@H](NC(=O)CCCCCCCCCCCCCCCCCCC(=O)O)C(=O)O)NC(=O)[C@H](CCCCN)NC(=O)[C@H](CC(=O)O)NC(=O)[C@H](CC(C)C)NC(=O)[C@](C)(Cc1ccccc1)NC(=O)[C@H](CCCCN)NC(=O)[C@H](CO)NC(=O)[C@@H](NC(=O)[C@H](CC(=O)O)NC(=O)[C@H](CO)NC(=O)[C@@H](NC(=O)[C@H](Cc1ccccc1)NC(=O)[C@@H](NC(=O)CNC(=O)[C@H](CCC(N)=O)NC(=O)C(C)(C)NC(=O)[C@@H](N)Cc1c[nH]cn1)[C@@H](C)O)[C@@H](C)O)C(C)C)C(C)C)C(=O)N[C@@H](CC(C)C)C(=O)NC(C)(C)C(=O)N[C@@H](CCC(=O)O)C(N)=O
B2: Peptide 449 (peptide)
peptide: H[Aib]QGTFTSDVSK[αMeF]LDTK([AEEA-AEEA-γGlu-γGlu-C20 diacid])RARDFVQWLLE[Aib]G-OH
modifications: N-terminus assumed
SMILES: CC(C)C[C@H](NC(=O)[C@H](Cc1c[nH]c2ccccc12)NC(=O)[C@H](CCC(N)=O)NC(=O)[C@@H](NC(=O)[C@H](Cc1ccccc1)NC(=O)[C@H](CC(=O)O)NC(=O)[C@H](CCCNC(=N)N)NC(=O)[C@H](C)NC(=O)[C@H](CCCNC(=N)N)NC(=O)[C@H](CCCCNC(=O)COCCOCCNC(=O)COCCOCCNC(=O)CC[C@H](NC(=O)CC[C@H](NC(=O)CCCCCCCCCCCCCCCCCCC(=O)O)C(=O)O)C(=O)O)NC(=O)[C@@H](NC(=O)[C@H](CC(=O)O)NC(=O)[C@H](CC(C)C)NC(=O)[C@](C)(Cc1ccccc1)NC(=O)[C@H](CCCCN)NC(=O)[C@H](CO)NC(=O)[C@@H](NC(=O)[C@H](CC(=O)O)NC(=O)[C@H](CO)NC(=O)[C@@H](NC(=O)[C@H](Cc1ccccc1)NC(=O)[C@@H](NC(=O)CNC(=O)[C@H](CCC(N)=O)NC(=O)C(C)(C)NC(=O)[C@@H](N)Cc1c[nH]cn1)[C@@H](C)O)[C@@H](C)O)C(C)C)[C@@H](C)O)C(C)C)C(=O)N[C@@H](CC(C)C)C(=O)N[C@@H](CCC(=O)O)C(=O)NC(C)(C)C(=O)NCC(=O)O
B3: Peptide 450 (peptide)
peptide: H[Aib]QGTFTSDVSK[αMeF]LDKK([AEEA-AEEA-γGlu-γGlu-C18 diacid])RAQDFVRWLLE[Aib]G-OH
modifications: N-terminus assumed
SMILES: CC(C)C[C@H](NC(=O)[C@H](Cc1c[nH]c2ccccc12)NC(=O)[C@H](CCCNC(=N)N)NC(=O)[C@@H](NC(=O)[C@H](Cc1ccccc1)NC(=O)[C@H](CC(=O)O)NC(=O)[C@H](CCC(N)=O)NC(=O)[C@H](C)NC(=O)[C@H](CCCNC(=N)N)NC(=O)[C@H](CCCCNC(=O)COCCOCCNC(=O)COCCOCCNC(=O)CC[C@H](NC(=O)CC[C@H](NC(=O)CCCCCCCCCCCCCCCCC(=O)O)C(=O)O)C(=O)O)NC(=O)[C@H](CCCCN)NC(=O)[C@H](CC(=O)O)NC(=O)[C@H](CC(C)C)NC(=O)[C@](C)(Cc1ccccc1)NC(=O)[C@H](CCCCN)NC(=O)[C@H](CO)NC(=O)[C@@H](NC(=O)[C@H](CC(=O)O)NC(=O)[C@H](CO)NC(=O)[C@@H](NC(=O)[C@H](Cc1ccccc1)NC(=O)[C@@H](NC(=O)CNC(=O)[C@H](CCC(N)=O)NC(=O)C(C)(C)NC(=O)[C@@H](N)Cc1c[nH]cn1)[C@@H](C)O)[C@@H](C)O)C(C)C)C(C)C)C(=O)N[C@@H](CC(C)C)C(=O)N[C@@H](CCC(=O)O)C(=O)NC(C)(C)C(=O)NCC(=O)O

Each binder was assayed against human GLP-1 receptor (human, UniProt P43220) (assay: cell-based or functional assay).

cAMP production EC50 [nM] | Binder
0.895 | B1
0.207 | B2
0.0573 | B3

Each binder was assayed against human glucagon receptor (human, UniProt P47871) (assay: cell-based or functional assay).

cAMP production EC50 [nM] | Binder
0.503 | B1
0.242 | B2
0.0578 | B3

Reference: patent publication US12630600B2 (MEDIMMUNE LIMITED, priority 2022, dated 2026)
